Measurements taken from PMC5931534.

Experiments:
calmodulin (CaM) [1] = molecular target: calmodulin (CaM) (UniProt P62157)
calmodulin (CaM) [2] = molecular target: calmodulin (CaM) (UniProt P62157); assay: ELISA; 96-well MaxiSorp plates coated with 1 ug CaM at 4 C overnight, blocked with 4% BSA; 80 ng DAPK2 for 15 min at 30 C; detected with anti-DAPK2 antibody, HRP secondary and ABTS

Sequence of FLAG-DAPK2 S289D (Q9UIK4 whole entry, stated change not applied): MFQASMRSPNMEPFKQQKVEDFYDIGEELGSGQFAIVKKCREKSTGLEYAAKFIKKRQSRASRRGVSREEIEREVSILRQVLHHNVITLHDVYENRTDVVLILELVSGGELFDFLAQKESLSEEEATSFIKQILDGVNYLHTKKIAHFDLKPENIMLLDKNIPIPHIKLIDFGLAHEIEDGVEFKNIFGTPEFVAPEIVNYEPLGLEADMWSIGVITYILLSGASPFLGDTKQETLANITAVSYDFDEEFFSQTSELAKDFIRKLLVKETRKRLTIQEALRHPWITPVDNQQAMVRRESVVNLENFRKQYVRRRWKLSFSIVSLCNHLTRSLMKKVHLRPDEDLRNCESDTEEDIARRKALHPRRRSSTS
Sequence of FLAG-DAPK2 S289A (Q9UIK4 whole entry, stated change not applied): as above

fold induction of the catalytic activity (MLC phosphorylation, in vitro kinase assay) upon addition of Ca2+/CaM against EGTA (calmodulin (CaM) [1]) [fold]	fold lower ELISA signal than DAPK2 WT (calmodulin (CaM) [2]) [fold]	Substance
1.6	–	FLAG-DAPK2 S289D (from UniProt Q9UIK4-1 1-370) (enzyme)
–	5	DAPK2 S289D (ELISA CaM binding assay) (from UniProt Q9UIK4-1 1-370) (enzyme)
5.4	–	FLAG-DAPK2 S289A (from UniProt Q9UIK4-1 1-370) (enzyme)
